Results published in patent US20260028422A1 (CONCEPT TO MEDICINE BIOTECH, published 2026).
Substitutions are numbered along the chain they refer to. Blank lines part the entries; values can stand above or below the binder they belong to.

Key:
[1] = target: T1, human MerTK expressed on cells (human, UniProt Q12866 21-999); assay: FACS on SK-MEL-5 cells expressing human MerTK, geometric mean
T1 construct: whole, on cells; also called CHO-K1-hMerTK; CHO-K1-MerTK
T1 sequence (looked up): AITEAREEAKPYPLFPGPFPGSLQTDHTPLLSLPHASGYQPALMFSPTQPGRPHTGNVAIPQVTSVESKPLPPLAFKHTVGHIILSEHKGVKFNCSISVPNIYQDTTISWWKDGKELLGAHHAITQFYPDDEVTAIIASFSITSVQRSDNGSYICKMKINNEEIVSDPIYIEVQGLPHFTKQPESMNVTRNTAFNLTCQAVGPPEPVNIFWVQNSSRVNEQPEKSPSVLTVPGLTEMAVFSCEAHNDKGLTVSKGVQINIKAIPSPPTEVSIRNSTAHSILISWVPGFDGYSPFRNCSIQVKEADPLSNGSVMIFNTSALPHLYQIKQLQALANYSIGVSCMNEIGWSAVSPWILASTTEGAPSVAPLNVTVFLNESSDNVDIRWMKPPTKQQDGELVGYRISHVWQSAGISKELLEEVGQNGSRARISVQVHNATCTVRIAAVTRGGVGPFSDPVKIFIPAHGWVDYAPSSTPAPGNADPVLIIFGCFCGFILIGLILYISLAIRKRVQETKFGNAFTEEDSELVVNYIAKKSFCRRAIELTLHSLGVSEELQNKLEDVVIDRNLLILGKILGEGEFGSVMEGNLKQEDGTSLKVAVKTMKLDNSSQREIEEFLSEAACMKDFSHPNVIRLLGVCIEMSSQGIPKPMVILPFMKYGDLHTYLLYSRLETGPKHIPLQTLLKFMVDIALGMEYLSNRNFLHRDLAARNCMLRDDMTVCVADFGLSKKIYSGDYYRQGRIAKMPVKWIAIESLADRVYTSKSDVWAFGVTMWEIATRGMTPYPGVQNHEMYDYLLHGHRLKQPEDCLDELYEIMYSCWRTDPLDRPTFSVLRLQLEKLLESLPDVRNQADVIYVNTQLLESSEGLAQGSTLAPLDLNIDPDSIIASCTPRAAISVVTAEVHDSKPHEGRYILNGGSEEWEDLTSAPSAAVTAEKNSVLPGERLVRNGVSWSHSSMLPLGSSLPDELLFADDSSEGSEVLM
Protocol: To evaluate the binding properties on MerTK expressed on cells, the chimeric monoclonal antibodies were analyzed for their binding to human melanoma cell line SK-MEL-5 expressing MerTK by FACS analysis. Briefly, SK-MEL-5 cells were firstly incubated with 5-fold serially diluted chimeric mAbs starting at 20 nM at 4° C. for 30 mins. After washing by FACS buffer, the PE conjugated anti-human IgG secondary antibody was incubated with the cell-antibody complex in the wells at 4° C. for 30 mins to detect the antibodies those bound to the cells. The MFI of PE was evaluated by QuantAnalyzer 16.

human MerTK-his protein = target: T2, human MerTK-his protein (human, UniProt Q12866 21-505); assay: ELISA, coated human MerTK-his
T2 construct: extracellular domain; also called hMerTK-His; human MerTK protein
T2 sequence (looked up): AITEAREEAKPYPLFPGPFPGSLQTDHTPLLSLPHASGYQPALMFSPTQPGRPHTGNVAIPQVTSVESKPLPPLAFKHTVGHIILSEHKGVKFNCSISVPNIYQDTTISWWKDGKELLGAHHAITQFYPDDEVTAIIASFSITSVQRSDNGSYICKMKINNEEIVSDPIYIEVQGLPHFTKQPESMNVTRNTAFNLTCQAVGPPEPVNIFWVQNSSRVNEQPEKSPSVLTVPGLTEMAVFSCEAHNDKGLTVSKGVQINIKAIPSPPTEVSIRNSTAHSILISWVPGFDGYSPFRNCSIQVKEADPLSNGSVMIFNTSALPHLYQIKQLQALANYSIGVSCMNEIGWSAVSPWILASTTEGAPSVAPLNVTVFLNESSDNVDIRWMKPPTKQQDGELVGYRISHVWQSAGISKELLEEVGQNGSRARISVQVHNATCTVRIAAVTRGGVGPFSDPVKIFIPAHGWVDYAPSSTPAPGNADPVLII
Protocol: (§1) To evaluate the binding activity, the chimeric mAbs were subjected to ELISA test. Briefly, 96-well plates were coated with human or cyno MerTK-his protein at 2 μg/mL in PBS, 100 μL/well at 4° C. overnight, then blocked with 150 μL/well of 1% BSA. Five-fold dilutions of MerTK antibodies starting from 20 nM were added to each well and incubated for 1 hour at room temperature. The plates were washed with PBS/Tween-20 and then incubated with goat anti-human IgG Fe antibody conjugated with Horse Radish Peroxidase (HRP) for 30 minutes (mins) at room temperature. After washing, the plates were developed with TMB substrate and subsequent stop solution was added to complete the reaction. The signal from each well was read by spectrophotometer at OD 450 nm.

cyno MerTK-his protein = target: T3, cyno MerTK-his protein (cynomolgus, UniProt A0A2K5V1H9 27-505); assay: ELISA, coated cyno MerTK-his
T3 construct: also called cyno MerTK protein; Cynomolgus
T3 sequence: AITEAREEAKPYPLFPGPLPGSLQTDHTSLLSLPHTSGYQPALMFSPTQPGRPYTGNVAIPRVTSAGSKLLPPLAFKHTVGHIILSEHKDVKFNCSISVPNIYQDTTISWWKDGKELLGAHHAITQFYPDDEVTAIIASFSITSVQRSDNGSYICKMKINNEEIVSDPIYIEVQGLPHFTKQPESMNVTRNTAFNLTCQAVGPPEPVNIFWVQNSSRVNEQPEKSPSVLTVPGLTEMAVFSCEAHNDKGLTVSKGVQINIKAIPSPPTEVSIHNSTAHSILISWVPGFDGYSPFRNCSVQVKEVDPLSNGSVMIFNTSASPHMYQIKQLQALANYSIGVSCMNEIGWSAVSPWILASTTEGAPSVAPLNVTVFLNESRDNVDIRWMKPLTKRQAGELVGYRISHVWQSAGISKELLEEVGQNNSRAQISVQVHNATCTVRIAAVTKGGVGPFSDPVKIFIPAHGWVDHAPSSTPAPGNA
Protocol: as §1

EC50 [1]: 0.074 nM
Top [1]: 7490 Geometric Mean
EC50 (human MerTK-his protein): 0.024 nM
EC50 (cyno MerTK-his protein): 0.026 nM
B1: 300A5A3 chimeric monoclonal antibody (antibody, V domains shown)
VH: QVQLQQSGPELVKPGASVKLSCKASGYTFTTYDINWVKQRPGLGLEWIGWIYPRDGYTKYNEKFKGKATLAVDTSSSTASMELHSLTSEDSAVYFCARGYYDNLYYFDNWGPGTTLTVSS
VL: ENVLTQSPTTVAASPGEKITITCSASSIISSNYLHWYQQKPGFSPKLLIYRTSNLASGVPARFSGSGSGTSYSLTIGTMEAEDAATYYCQQGRSVPLTFGAGTKLELK

EC50 [1]: 0.039 nM
Top [1]: 7490 Geometric Mean
EC50 (human MerTK-his protein): 0.012 nM
EC50 (cyno MerTK-his protein): 0.014 nM
B2: 280C6A3 chimeric monoclonal antibody (antibody, V domains shown)
VH: B1 VH with T28S, L43Q, Y57S, A71T, V72L, S77N, S80Y, E82G, N109Y, P112Q
VL: B1 VL with N2I, V11M, I28S, I29V, A84V, S94I
